{
  "source": "patent US20210403538A1",
  "data": [
    {"target": "EBOV GP on recombinant EBOV-eGFP virus (Zaire ebolavirus (EBOV))", "test": "cell-based or functional assay", "units": {"Neutralization, IC50 ng/mL": "ng/mL"}, "values": [
      {"binder": "EBOV-434 (antibody, V domains shown) VH: QVQLVQSGAEVKKPGASVKVSCKASGYTFTGYYMFWVRQAPGQGLEWMGWINPNSGGTNYTQKFQGRVTMTRDTSISTAYMELSRLKSDDTAVYYCARDSGELLFVGSDVWGQGTLVTVSS VL: DIQMTQSPSSVSASVGDRVTITCRASLDISYWLAWYQQKPGKAPKLLIYAASNLQSGVPSRFSGSGSGTDFTLTISSLQPEDFATYYCQQANSFPQTFGQGTRLELK", "Neutralization, IC50 ng/mL": "> 200000"},
      {"binder": "EBOV-446 (antibody, V domains shown) VH: QVQLVQSGAEVKKPGASVKVSCKASGYTFTDYYIYWVRQAPGQGLEWMGWLNPNSGGTDYAQKFQGRVTMTRDTSIRTAYMDLSRLRSDDTAVYYCARGRRHGAYVDWGQGTLVTVSS VL: DIQLTQSPSFLSASVGDRVTITCRASQGISTYLAWYQQKPGKAPNLLIYDTSTLQSGVPSRFSGSASGTEFTLTISSLQPEDFATYYCQQLNFYLGGLTFGQGTRLEIK", "Neutralization, IC50 ng/mL": "> 200000"},
      {"binder": "EBOV-451 (antibody, V domains shown) VH: EVQLVESGGSVVRPGGSLRLSCAASGFKFDEYGMSWVRQAPGKGLEWVSGITWNGGVRTYADSVKGRFTISRDNAKNSVYLQMKSLRGEDTALYYCVSWGERYDAYFDYWGQGTLVTVSS VL: EIVLTQSPGSLSLSPGERATLSCRASQSVNSRYFAWYQQRPGQAPRLLIYATSTRATGIPDRFSGSGSGTDFTLTISRLEPEDFAVYSCQQYGSSPYTFGQGTKLEIK", "Neutralization, IC50 ng/mL": "> 200000"},
      {"binder": "EBOV-507 (antibody, V domains shown) VH: QVQLVQSGAEVKKPGASVKVSCKASGYTFNNYLINWVRQAPGQGLEWMGWINPHSGGTEYAQQFQGRLTVTRDTSIRTAYMELRGLTFDDSAMYYCWIWFRSETFDFWGQGTLVTVSS VL: DIQMTQSPSAMSASVGDRVTITCRASQDISNYLAWFQQKPGQGPKRLIFEASILHSGVPSRFSGSGSGTEFTLTISSLQPEDFATYYCLQHNTYLTFGQGTKVEIK", "Neutralization, IC50 ng/mL": "> 200000"},
      {"binder": "EBOV-508 (antibody, V domains shown) VH: QVQLVQSGAEVKKPGASVKVSCKASGYTFINYYMHWVRQAPGQGLEWMGTINPSTGRPNYAQKFQGRVTLTRDTSTTTVDMELSSLTSEDTAVYYCVSFQFYFDYWGQGTLVTVSS VL: DIQMTQSPSAMSPSVGDRVTITCRASQGINNYLAWFQQKPGKVPKRLIYAASNLQSGVPSRFSGSGSGTEFTLTISSLQPEDFATYYCLQHNSYPWTFGQGTKVEIN", "Neutralization, IC50 ng/mL": "> 200000"},
      {"binder": "EBOV-510 (antibody, V domains shown) VH: QVQLQESGPGLVKPSQTLSLTCTVSGGSITSGDYYLTWVRQPPGKGLEWIGHIYYSGSTSYNPSLKSRLLMSVDTSKNQFSLRLSSVTAADTAVYYCARESDGDPSRLYFYFAMDVWGQGTLVTVSS VL: QSALTQPASVSGSPGQSITISCTGTSSDVGGSYFVSWYQHHPGKAPKLMISEVSNRPSGVSNRFSGSKSGNTASLTISGLRTEDEADYYCSSYTSNTTLVFGGETKVTVL", "Neutralization, IC50 ng/mL": "> 200000"},
      {"binder": "EBOV-511 (antibody, V domains shown) VH: QLQLQESGPGLVKPSETLSLSCTVSGDSISANNYFWGWIRQPPGKELEWIGSIHNSGSTYYNPSLKSRVTTSVDTSRTQFSLKLHSVTAADAAIYYCARHLAPISGVIFIPSFFDSWGQGTLVTVSS VL: EIVMTQSPATLSVSPGERATLSCRASQSVSSNLAWYQQRPGQAPRLLIFDASTRATGVPARFSGSGSGTEFTLTISSLQSEDFALYYCQQYNDWPPRLTFGGGTKVEIK", "Neutralization, IC50 ng/mL": "> 200000"},
      {"binder": "EBOV-514 (antibody, V domains shown) VH: QVQLQESGPGLVKPSQTLSLTCTVSGASITGGDDFWSWIRQPPGKGLEWIGFIHHSGNAYYRSSLKSRVHFSVDTSKDQFSLTLTSVTAADTAVYYCARDKAQAYGLLYHYHTDVWGKGTLVTVSS VL: EIVMTQSPATLSVSPGERATLSCRASQSVSSNLAWYQQKPGLAPRLLIYGAFTRATDIPDRFSGSGSGTEFTLTISSLQSEDFAIYYCQYYNDWPPGYTFGQGTKLEIK", "Neutralization, IC50 ng/mL": "> 200000"},
      {"binder": "EBOV-517 (antibody, V domains shown) VH: EVQLVESGGGLVQPGGSLRLSCGASGFTFNKYWMTWVRQAPGKGLEWVANINQDGSEKYFAESVKGRFTVSRDNAKNSLYLQMNSLRAEDTAVYYCARGASIEVEILYYYHMDVWGKGTLVTVSS VL: EIVMTQSPATLSVSPGERATLSCRASQSITTHLAWYQQKPGQAPRLLIYDTSTRATGIPARFSGSGSGTEFTLTISNMQSEDFAVYYCQQYHTWPPLTFGGGTKVEIK", "Neutralization, IC50 ng/mL": "> 200000"},
      {"binder": "EBOV-518 (antibody, V domains shown) VH: QVTLKESGPTLVKPTQTLTLTCTFSGFSMNSSGMSVTWIRQPPGKALECLALIYWDDDKWYGPSLETRVTITKDASKNQVVLTMTNMDPVDTATYYCAHSGGLVAGAFDYWGQGTLVTVSS VL: EIVMTQSPDSLTVSLGERATINCRSSQSVLYRVNSKNYLAWYQQKAGQTPKLIINWASTRESGVPDRFSGSGSGTDFTLTISSLQAEDVAVYYCQQYYNSPRTFGQGTKVEIK", "Neutralization, IC50 ng/mL": "> 200000"},
      {"binder": "EBOV-520 (antibody, V domains shown) VH: QVQLQESGPGLGKPSETLSLSCTVSGASIRGYFWNWIRQPPGKGLEWIGYIHSTGSTNYNPSLKSRVTISVDTSKNQVSLNVNSVTAADTAVYFCARGAWNVATVYYYYGMDVWGQGTLVTVSS VL: EIVLTQSPGTLSLSPGERATLSCRASQSVSSSYFAWYQQKPGQAPRLLISGTSTRAPGIPDRFSGSGSGTDFTLTISRLEPEDFAVYFCQQYGNSLYTFGQGTKLEIK", "Neutralization, IC50 ng/mL": 5740},
      {"binder": "EBOV-524 (antibody, V domains shown) VH: QVQLVESGGGVVQPGGSLRLSCAASGFKFSTYGMNWVRQVPGQGLEWVSFVRHDGSNKYYSDSVKGRFTIFRDNSNNKLYLQMNNLRAEDTAVYYCAKDVLDCSRADCFIYYYYMDVWGKGTLVTVSS VL: DIQMTQSPSSVSASPGDRVTITCRASQTISGWLAWYQQKPGKAPKLLIYDVSTLQSGVPSRFSGGGSGTEFTFTISSLQPEDYATYFCQQGNRIPLSFGGGTRVEIK", "Neutralization, IC50 ng/mL": "> 200000"},
      {"binder": "EBOV-442 (antibody, V domains shown) VH: EVQLVESGGGLVKPGGSLRLSCTGSGGTGFTFKYAGMSWVRQAPGKGPEWIGRIKSRIDGGTTDYAAPVKDRFIVSRDDSRNTLYLQMNSLKTEDTAVYYCATGSGKGPSASFGESYYYYDFINVWGKGTTVTVSS VL: ESVLTQSPGTLSLSPGERATLSCRASQSISRKYLAWYQQKPGQAPRLLIYGSSSRATGIPDRFSGSGSGTDFTLTISRLEPEDFAVYYCHQYESSPWTFGQGTKVEIK", "Neutralization, IC50 ng/mL": 467}
    ]}
  ]
}
